Measurements: article PMC314469, “Protein Interaction Networks by Proteome Peptide Scanning” (PLoS Biology, 2004)

T1: amphyphisin SH3 (AMPH_HUMAN), P49418
T1 chain: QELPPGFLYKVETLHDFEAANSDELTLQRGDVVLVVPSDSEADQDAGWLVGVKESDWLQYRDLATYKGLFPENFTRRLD

B1: Q00325 36-49 (peptide)
chain: PTGQPRRPRNLAAA
B2: O60904 189-203 (peptide)
chain: PSAPPAKPPSTQRA
B3: Q9NTY7 879-893 (peptide)
chain: ASQSPKKPPAKDPL
B4: Q9UPX1 609-622 (peptide)
chain: PSPALPRPSRSSPG
B5: Q16671 539-552 (peptide)
chain: PTILPSRPQRSASH
B6: Q99785 97-111 (peptide)
chain: PSRPPRRPPWGRGS
B7: Q9NRR6 185-199 (peptide)
chain: PSLLPPRPPPALSL
B8: Q8WVQ3 114-128 (peptide)
chain: PSPLPPKPPFPGPG
B9: O95327 205-218 (peptide)
chain: PTSSPHRPHRLPLA
B10: O75064 398-411 (peptide)
chain: PRTLPRRPYKVLLA
B11: Q99700 584-597 (peptide)
chain: PSRPPSRPSRPPSH
B12: Q99700 579-593 (peptide)
chain: PTRPPSRPPSRPSR
B13: Q99755 29-42 (peptide)
chain: AASGIKRPMASEVL
B14: Q9H013 786-800 (peptide)
chain: PSQPPPRPPPDYLR
B15: P13498 150-164 (peptide)
chain: PSNPPPRPPAEARK
B16: Q9H3T3 825-838 (peptide)
chain: PTGSLRRPLGPHAP
B17: Q9C098 170-183 (peptide)
chain: PTQELRRPSKSMDK
B18: Q9BVH8 774-788 (peptide)
chain: PTEGPRRPPPRPPS
B19: O60342 30-44 (peptide)
chain: PSARPARPPRVRGP
B20: O60890 702-715 (peptide)
chain: PSFHIKRPAPRPLA
B21: O75916 510-523 (peptide)
chain: PSRFIRRPSTTISP
B22: Q96QH2 28-42 (peptide)
chain: PSDLPKKPPKPEFG
B23: Q9HC35 168-181 (peptide)
chain: PTKSIKRPSPAEKS
B24: Q9HBS1 152-165 (peptide)
chain: PSQVPRRPHHTPFQ
B25: Q9NZM4 744-758 (peptide)
chain: PTRPPSRPPSRPQS
B26: Q13601 2-15 (peptide)
chain: ASPSLERPEKGAGK
B27: O75817 27-40 (peptide)
chain: PSRLPRRPNDIYVN
B28: Q9BZD6 162-175 (peptide)
chain: PSIIFRRPEEAALS
B29: Q9UDM5 470-484 (peptide)
chain: PSQVPPRPPPPRLP
B30: Q9NXK1 363-376 (peptide)
chain: PSGPPARPSRSMWD
B31: Q06945 55-68 (peptide)
chain: PSGHIKRPMNAFMV
B32: O75592 2352-2365 (peptide)
chain: ASPTPKRPSENMLI
B33: P48023 33-46 (peptide)
chain: PTSVPRRPGQRRPP
B34: Q93074 1800-1813 (peptide)
chain: PRVDPYRPVRLPMQ
B35: Q9HBF9 133-146 (peptide)
chain: PSPNFKRPYQRFQW
B36: Q96DL6 53-67 (peptide)
chain: PSLRPLKPPPPPRQ
B37: Q8TDP0 823-837 (peptide)
chain: PSPSPARPPGTSPP
B38: P43681 443-457 (peptide)
chain: PSPGPSRPPHGTQA
B39: Q9UFP0 807-820 (peptide)
chain: PSMDFNRPGKRAPW
B40: O95416 4-17 (peptide)
chain: PSDHIKRPMNAFMV
B41: Q00610 58-71 (peptide)
chain: PSNPIRRPISADSA
B42: Q9P0U4 228-241 (peptide)
chain: PSESLPRPRRPLPT

Legend:
[1] = target: T1, amphyphisin SH3 (AMPH_HUMAN), P49418; assay: SPOT array
[2] = target: endophilin SH3 (SH3G2_HUMAN), Q99962; assay: SPOT array

Row | Binder | normalised SPOT signal, Boehringer light units (BLU); mean over the file's lines of this peptide [1] | normalised SPOT signal, Boehringer light units (BLU); mean over the file's lines of this peptide [2]
1 | B1 | 66 | 254
2 | B2 | 53.9 | 254
3 | B3 | 57.6 | 60.6
4 | B4 | 778 | 2060
5 | B5 | 17500 | 9690
6 | B6 | 10100 | 12300
7 | B7 | 82.9 | 5800
8 | B8 | 43.5 | 843
9 | B9 | 248 | 166
10 | B10 | 109 | 865
11 | B11 | 11900 | 11400
12 | B12 | 23500 | 19900
13 | B13 | 48.8 | 116
14 | B14 | 68.9 | 1790
15 | B15 | 182 | 991
16 | B16 | 15.7 | 35
17 | B17 | 48.6 | 35
18 | B18 | 3310 | 3050
19 | B19 | 16100 | 21500
20 | B20 | 18.2 | 61.1
21 | B21 | 42 | 364

Row | Binder | normalised SPOT signal, Boehringer light units (BLU); mean over the file's lines of this peptide [1] | normalised SPOT signal, Boehringer light units (BLU); mean over the file's lines of this peptide [2]
22 | B22 | 16.4 | 258
23 | B23 | 7.4 | 75.3
24 | B24 | 43.1 | 1670
25 | B25 | 7120 | 5850
26 | B26 | 15 | 175
27 | B27 | 38.8 | 41.9
28 | B28 | 34.1 | 48.3
29 | B29 | 2340 | 12300
30 | B30 | 3350 | 2740
31 | B31 | 47.9 | 75.8
32 | B32 | 43.4 | 43.3
33 | B33 | 32.6 | 870
34 | B34 | 327 | 175
35 | B35 | 43.9 | 71.3
36 | B36 | 876 | 4590
37 | B37 | 31.2 | 67.6
38 | B38 | 47 | 128
39 | B39 | 77.6 | 460
40 | B40 | 16.2 | 85
41 | B41 | 35.4 | 47.5
42 | B42 | 264 | 405
